Source: patent US9393309B2, “Self-gelatinizable nucleic acid” (Kyoto University, priority 2011, dated 2016)

Experiments:
[1] = test system: atopic dermatitis model mouse; assay: Application to atopic dermatitis model mouse; assay type: in vivo; conditions: vs Tetrapodna without cholesterol modification
RAW264.7 cells [2] = assay: Uptake of cholesterol-modified Tetrapodna by cells; assay type: cell-based
Procedure: In order to examine applicability of nucleic acid having a modifying group, Tetrapodna using cholesterol-modified DNA was prepared. […] Furthermore, uptake of each Tetrapodna by RAW264.7 cells was measured.

[3] = Melting temperature (Tm) from melting curve, absorbance at 260 nm; assay type: physicochemical; conditions: sodium concentration of 5 mM
Procedure: Each DNA preparation was prepared in the same manner as in Example 1 by using the sequences in Table 1. The absorbance of polypodna or other DNA preparations at 260 nm was measured by using a Shimadzu UV-1600 PC spectrometer (Kyoto, Japan) equipped with a TMSPC-8 temperature controller 18. The melting temperature (Tm) was obtained from the melting curve at the sodium concentration of 5 mM in each preparation.

RAW264.7 cells [4] = assay: Release of TNF-α from RAW264.7 cells (ELISA); assay type: cell-based, murine; conditions: 0.5, 1 or 2 μg/ml, 8 hours
Procedure: In a RPMI1640 medium to which 10% heat inactivated FBS, 0.15% sodium bicarbonate, 100 units/ml penicillin, […] streptomycin and 2 mML-glutamine were added, murine macrophage-like RAW264.7 cells were proliferated in humidified air containing 5% CO2 at 37° C. Subsequently, cells were seeded on a 24-well or 96-well culture plate at a density of 5×10^5 cells/well, and cultured for 24 hours before use.
The RAW264.7 cells were seeded on a 24-well plate at a density of 2.5×10^5 cells/well, and incubated for 24 hours before treatment. Then, ssDNA, dsDNA, or several kinds of polypodnas diluted in 0.5 ml of Opti-MEM were added to the cells at a final concentration of 0.5, 1 or 2 μg/ml. The cells were incubated for 8 hours, the supernatant was recovered and stored at −70° C. before use. The concentrations of TNF-α and IL-6 in the supernatant were measured by Enzyme-Linked Immunosorbent Assay (ELISA) using an OptEIA™ set (Pharmingen, San Diego, Calif., USA).
The same experiment as in Example 22 was carried out except that each poolypodna preparation was prepared in the same manner as in Example 1 by using the sequences in Table 1. However, the added DNA was equal amount in each case.

[5] = Evaluation of gelation at various DNA concentrations and NaCl concentrations; assay type: physicochemical; design: key: ◯: the mark “∘” is given to cases in which gelation was observed; X: the mark “x” is given to cases of a solution state (sol-state)
Procedure: […] The gel formation and the gel strength were measured by a gel strength analyzer (gel strength meter, Nakayamadenki Co., Ltd, Osaka).
Specifically, by changing the DNA concentrations of an aqueous solution of Tripodona (4-18-18) (X=4) (SEQ ID NOs.: 1, 2 and 3), Tetrapodna (4-18-18) (X=4) (SEQ ID NOs.: 2, 4, 5 and 6), Hexapodna (4-18-18) (X=4) (SEQ ID NOs.: 2, 3, 4, 7, 9 and 10) and Tetrapodna (8-16-16) (X=8) (SEQ ID NOs.: 22, 23, 24 and 25) as shown in the lines of Table 4, and by changing the NaCl concentration as shown in the rows of Table 4, whether or not a gel is formed at various DNA concentrations and NaCl concentrations was evaluated. The results are shown such that the mark “∘” is given to cases in which gelation was observed, and the mark “x” is given to cases of a solution state (sol-state).

[6] = Temperature conditions for gel formation; assay type: physicochemical; conditions: NaCl 150 mM
Procedure: Furthermore, we investigated a possibility that temperature conditions are also involved in gelation. Tetrapodna (4-18-18) (SEQ ID NOs.: 2, 4, 5 and 6), Hexapodna (4-18-18) (SEQ ID NOs.: 2, 3, 4, 7, 9 and 10) and Tetrapodna (8-16-16) (SEQ ID NOs.: 22, 23, 24 and 25) were used to examine the temperature conditions for allowing a gel be present or a sol to be present by fixing the NaCl concentration at 150 mM and changing the DNA concentration variously.

[7] = Formation of hydrogel from nucleic acid units without ligase; assay type: physicochemical; conditions: without DNA ligase
Procedure: A NaCl solution was added to an ODN solution (polypodna) such that the final Na^+ concentration was 5 to 150 mM. The gel formation and the gel strength were measured by a gel strength analyzer (gel strength meter, Nakayamadenki Co., Ltd, Osaka).
A structure to be a hydrogel (a nucleic acid monomer and an estimated nucleic acid unit) in conditions at room temperature, at 5 mM to 150 mM sodium chloride concentration (150 mM is substantially physiological concentration), and not containing a DNA ligase was elucidated. […] For convenience, nucleic acid units estimated to be formed according to the number of nucleic acid monomers capable of constituting the nucleic acid unit were represented by xxxpodna (xxxpod-like structure forming nucleic acid, xxx is substituted by tri (3), tetra (4) and the like, according to the number of nucleic acid monomers capable of constituting the nucleic acid unit). In Table 2 described below, xxxpodna is an estimated nucleic acid unit, and each of xxx-Y-N is a nucleic acid monomer that can be a constituent element of the nucleic acid unit (xxxpodna) which is mentioned above thereof. When the descriptions of Ys are different from each other, different nucleic acid units can be formed. N denotes numbering of nucleic acid monomers constituting each of the estimated nucleic acid units.
Unlike (1-1) described above, gelation can be controlled by using a nucleic acid monomer including cohesive protruding ends which are not attached to themselves (that is, not palindrome sequence).

[8] = Percentage of remaining gels with the passage of time; assay type: physicochemical; conditions: DNA 0.5 mM
Procedure: Gels were formed by adjusting the NaCl concentration at 150 mM in an aqueous solution containing Tetrapodna (12-14-14) (SEQ ID NOs.: 30, 31, 32 and 33) at a DNA concentration of 0.1 mM, 0.25 mM or 0.5 mM, and the percentage of the remaining gels was measured with the passage of time. The results are shown in a graph in the left upper side of FIG. 17.
Gels were formed in conditions at a certain DNA concentration (0.5 mM) and a certain NaCl concentration (150 mM), and the percentage of the remaining gels was measured with the passage of time by using Tetrapodna (respectively, SEQ ID NOs.: 2, 4, 5 and 6, SEQ ID NOs.: 18, 19, 20 and 21, SEQ ID NOs.: 22, 23, 24 and 25, SEQ ID NOs.: 26, 27, 28 and 29, as well as SEQ ID NOs.: 30, 31, 32 and 33) having various lengths of the cohesive protruding end (4, 6, 8, 10 or 12 bases). The results are shown in a graph in the left lower side of FIG. 17. […] When 12 hours had passed, the percentage of the remaining gels became about 50%.
Gels were formed by variously changing the NaCl concentrations (5 mM, 50 mM, 100 mM or 150 mM) of an aqueous solution containing Tetrapodna (12-14-14) (SEQ ID NOs.: 30, 31, 32 and 33) at a DNA concentration of 0.5 mM, and the percentage of the remaining gels was measured with the passage of time. The results are shown in a graph in the right upper side of FIG. 17. […] At a low salt concentration (5 mM), almost all the formed gels became in a sol state when about 6 hours had passed. When the salt concentration was increased to 50 mM, solation tendency was weakened, a change from a gel into a sol occurred moderately (about 40% when 12 hours had passed).
The percentage of the remaining gels was measured with the passage of time in the same manner as in (8-3) except that Tetrapodna (4-18-18) (SEQ ID NOs.: 2, 4, 5 and 6) was used instead of Tetrapodna (12-14-14) (SEQ ID NOs.: 30, 31, 32 and 33). The results are shown in a graph in the right lower side of FIG. 17. […] In (8-3), Tetrapodna (12-14-14) (the length of the cohesive protruding end is 12 bases) was used. In (8-4), Tetrapodna (4-18-18) (the length of the cohesive protruding end is 4 bases) was used.

[9] = Release of encapsulated OVA from gel; assay type: physicochemical; conditions: DNA 0.5 mM, OVA 2.5 μg/μl
Procedure: By controlling the nature and salt concentration of protruding ends of Tetrapodna, the change of the releasing rate of an encapsulated compound in a gel was examined. Specifically, Tetrapodna (4-18-18) (SEQ ID NOs.: 2, 4, 5 and 6) including a cohesive protruding end and Tetrapodna (4-18-18) (SEQ ID NOs.: 58, 59, 60 and 61) as a control including a non-cohesive protruding end were used. In an aqueous solution of Tetrapodna which had been prepared such that the DNA concentration was 0.5 mM, the NaCl concentration was adjusted to 5 mM or 150 mM. When the NaCl concentration was increased, egg albumin (OVA, concentration of 2.5 μg/μl) was added as an encapsulated substance to cause gelation, and then the percentage of OVA released from the gel with the passage of time was measured.

[10] = Gel formation in a living body after subcutaneous injection of sol; assay type: in vivo; conditions: total DNA 2 mM, NaCl 5 mM, back of mouse
Excerpt: The hydrogel produced in Example 1 was able to be prepared in a sol state by appropriately adjusting conditions. Therefore, the hydrogel was able to be administered in a living body by injection. […] Thus, it was confirmed that a gel is formed in a living body only by preparing the hydrogel in accordance with the present invention in a sol state and administering the hydrogel to a living body.

[11] = test system: mouse dendritic cell DC2.4; assay: Stimulation of dendritic cells by gel; assay type: cell-based; conditions: gel brought into contact with DC2.4
splenocytes = assay: IFN-γ production by splenocytes after immunization with OVA in gel; assay type: in vivo, mouse; conditions: 100 μg OVA + 100 μg DNA, spleen on Day 14, vs only OVA

B1: Chol-CpG DNA: Tetrapodna (SEQ ID NOs.: 2, 4, 5 and 6) which contains a cholesterol-modified nucleic acid monomer and a CpG motif (conjugate)
DNA 1: ACGTTCGACAGCGTCAACGTGAAACGTGAAGCGTCTGCGA
DNA 2: ACGTTCGCTGACGTTGCAGACATCACGTTGACGCTGTCGA
DNA 3: ACGTTCGCAGACGCTTCACGTTGCAGACAGACGTTGACGA
DNA 4: ACGTTCGTCAACGTCTGTCTGCTGTCTGCAACGTCAGCGA
modifications: DNA, phosphodiester; one monomer cholesterol-modified, strand and position not given here
**Q.** What does the source list for B1?
**A.** tissue transferability ([1]; applied to skin): increased; skin inflammation [1]: better suppressed; uptake by RAW264.7 cells (RAW264.7 cells [2]): incorporated into RAW264.7 cells better than Tetrapodna as a control which does not have cholesterol modification

B2: dsDNA36: double strand of dsDNA36-1 and dsDNA36-2, SEQ ID Nos. 108 and 109 (nucleic acid)
chain 1: TCGCTGACGTTGCAGACATCACGTTGACGCTGTCGA
chain 2: TCGACAGCGTCAACGTGATGTCTGCAACGTCAGCGA
modifications: unmodified DNA
**Q.** Which results are given for B2?
**A.** Tm [3]: 66.5 °C; TNF-α release (RAW264.7 cells [4]): the TNF-α release hardly occurred

B3: Tetrapodna(4-18-18): four ODNs, SEQ ID NOs.: 2, 4, 5 and 6, 4-base cohesive protruding end, contains CpG motif (nucleic acid)
DNA 1: ACGTTCGACAGCGTCAACGTGAAACGTGAAGCGTCTGCGA
DNA 2: ACGTTCGCTGACGTTGCAGACATCACGTTGACGCTGTCGA
DNA 3: ACGTTCGCAGACGCTTCACGTTGCAGACAGACGTTGACGA
DNA 4: ACGTTCGTCAACGTCTGTCTGCTGTCTGCAACGTCAGCGA
modifications: unmodified DNA
**Q.** Which gelation ([5]; Na+ 2 mM, DNA 0.8 mM) does the source give for B3 here?
**A.** ◯

**Q.** And the gelation ([5]; Na+ 20 mM, DNA 0.6 mM)?
**A.** X

**Q.** What about the gelation ([5]; Na+ 20 mM, DNA 0.7 mM) of the same molecule?
**A.** X

**Q.** And the gelation ([5]; Na+ 50 mM, DNA 0.6 mM)?
**A.** ◯

**Q.** And the gelation ([5]; Na+ 50 mM, DNA 0.7 mM)?
**A.** ◯

**Q.** What about the gelation ([5]; Na+ 100 mM, DNA 0.5 mM) of the same molecule?
**A.** X

**Q.** And the gelation ([5]; Na+ 150 mM, DNA 0.4 mM)?
**A.** X

**Q.** And the gelation ([5]; Na+ 150 mM, DNA 0.5 mM)?
**A.** ◯

**Q.** And the “temperature at which gel is present” value ([6]; DNA concentration 0.4-0.5 mM)?
**A.** gel at 45 °C

**Q.** What about the “temperature at which sol is present” value ([6]; DNA concentration 0.4-0.5 mM) of the same molecule?
**A.** sol at 55 °C

**Q.** What about the “temperature at which gel is present” value ([6]; DNA concentration 0.6-0.8 mM) of the same molecule?
**A.** gel at 55 °C

**Q.** What about the “temperature at which sol is present” value ([6]; DNA concentration 0.6-0.8 mM) of the same molecule?
**A.** sol at 65 °C

**Q.** What about the gel formation [7] of the same molecule?
**A.** gels can be prepared

**Q.** What about the “percentage of the remaining gels with the passage of time” value ([8]; NaCl 150 mM) of the same molecule?
**A.** a gel became a sol with the passage of time

**Q.** What about the “percentage of the remaining gels” value ([8]; NaCl 150 mM, 12 hours) of the same molecule?
**A.** about 50%

**Q.** What about the “percentage of the remaining gels, dependence on salt concentration” value ([8]; NaCl 5, 50, 100 or 150 mM) of the same molecule?
**A.** as the salt concentration is higher, it tends to be present not in a sol but in a gel

**Q.** And the “release of OVA from the gel” value ([9]; NaCl 5 mM)?
**A.** all OVA was released for a short time

**Q.** What about the “percentage of OVA released” value ([9]; NaCl 150 mM, 24 hours) of the same molecule?
**A.** about 60%

**Q.** What about the “gel formation in a living body” value [10] of the same molecule?
**A.** gelation occurred in a living body after administration

**Q.** And the “immunological stimulation of dendritic cell” value [11]?
**A.** significantly immunologically stimulated a mouse dendritic cell

**Q.** And the “production of IFN-γ by splenocytes stimulated with OVA” value (splenocytes)?
**A.** remarkable increase in production amount of IFN-γ
